Data on 28 molecules can be found in article PMC8443799, “Structural characterization of KKT4, an unconventional microtubule-binding kinetochore protein”.

One may read the stoichiometry N as a count of units in the complex or per binding partner. Broadly, the Kd is the free concentration of one partner at which half of the binding sites on the other are occupied at equilibrium, for simple one-to-one binding.

T1: KKT4 full-length (KKT4 2-645) (Trypanosoma brucei, UniProt Q580Y8 2-645)
T1 sequence: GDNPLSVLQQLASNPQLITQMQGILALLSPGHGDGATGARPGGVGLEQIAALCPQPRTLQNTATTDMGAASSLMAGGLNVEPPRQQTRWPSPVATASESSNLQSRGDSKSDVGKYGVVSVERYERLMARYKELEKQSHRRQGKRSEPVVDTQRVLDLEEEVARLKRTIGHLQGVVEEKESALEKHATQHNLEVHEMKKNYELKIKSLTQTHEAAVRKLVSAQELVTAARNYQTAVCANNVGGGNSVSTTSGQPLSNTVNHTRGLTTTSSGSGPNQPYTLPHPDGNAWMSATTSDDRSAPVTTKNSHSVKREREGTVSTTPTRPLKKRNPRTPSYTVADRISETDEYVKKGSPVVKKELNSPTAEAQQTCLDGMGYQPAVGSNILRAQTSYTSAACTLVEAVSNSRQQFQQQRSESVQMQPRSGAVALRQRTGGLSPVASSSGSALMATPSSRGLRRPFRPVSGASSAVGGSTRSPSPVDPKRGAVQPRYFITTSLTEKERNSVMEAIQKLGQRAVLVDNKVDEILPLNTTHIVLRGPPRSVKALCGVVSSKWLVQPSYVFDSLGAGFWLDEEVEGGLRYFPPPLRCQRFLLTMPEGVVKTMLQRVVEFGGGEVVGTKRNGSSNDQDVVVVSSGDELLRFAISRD

B1: BA3098 50-bp CIR147 DNA probe (dsDNA)
DNA 1: CAATATGTAAGGTGTTTTGGTGTAAAACACGCATTCTTGCATAACATGCA
DNA 2: TGCATGTTATGCAAGAATGCGTGTTTTACACCAAAACACCTTACATATTG

The first data set addresses KKT4^101–352 (Trypanosoma brucei). The data set can be described thus: SEC-MALS; KKT4 fragments; 25 mM HEPES pH 7.5, 150 mM NaCl, 0.5 mM TCEP.
Conditions: not given
A general note: Size exclusion chromatography separates by hydrodynamic size, large species first.
KKT4^101–352 (domain or fragment) registered a stoichiometry N of 2.

A further data set deals with T1, KKT4 full-length (KKT4 2-645). Briefly: fluorescence anisotropy; 1 nM DNA; 25 mM HEPES pH 7.5, 50 mM NaCl, 0.5 mM TCEP, 1 nM DNA, 30 min at room temperature. As to conditions: protein: recombinant; tags: SNAP-6HIS-3FLAG (pBA925; from Sf9); chain copies: 2; label: 5' 6-FAM; blunt (only one strand printed; 50-bp dsDNA).
As for B1, the Kd was 11 nM.

The next data set addresses Synthetic KKT8 phosphopeptide (BA_peptide_2 (DBS1831-1)) (T. brucei). Briefly: fluorescence polarisation; fluorescence anisotropy; KKT4 463-645 (from 170 μM, serially diluted 2:3) with 100 nM 5-FAM peptide probe; 25 mM HEPES pH 7.5, 50 mM NaCl, 0.5 mM TCEP; 30 min at room temperature.
Conditions: not given
Take KKT4^463–645 K543A (domain or fragment): the fold decrease of binding affinity against wild-type KKT4 BRCT was found to be 10 fold.

Molecule “KKT4^463–645 (KKT4 BRCT domain) (domain or fragment)” returned a Kd of 30 µM.

The target of the next data set is KKT4^2–114 (Trypanosoma brucei). Briefly: SEC-MALS; KKT4 2-114 at lower concentrations; 25 mM HEPES pH 7.5, 150 mM NaCl, 0.5 mM TCEP.
Conditions: not given
Molecule KKT4^2–114 (domain or fragment) came in with a stoichiometry N of 3.

Another data set has the same target. Briefly: SEC-MALS; KKT4 2-114 at higher concentrations; 25 mM HEPES pH 7.5, 150 mM NaCl, 0.5 mM TCEP.
Conditions: not given
KKT4^2–114 (domain or fragment) displayed a stoichiometry N of 4.

For a further data set, the target named is Taxol-stabilised microtubules (porcine brain tubulin) (UniProt P02550). The data set can be described thus: microtubule co-sedimentation assay. Conditions: parent: est. 0.90; read off a plot.
Sequence of Taxol-stabilised microtubules (porcine brain tubulin) (P02550 whole entry, looked up, the tested form may be a part): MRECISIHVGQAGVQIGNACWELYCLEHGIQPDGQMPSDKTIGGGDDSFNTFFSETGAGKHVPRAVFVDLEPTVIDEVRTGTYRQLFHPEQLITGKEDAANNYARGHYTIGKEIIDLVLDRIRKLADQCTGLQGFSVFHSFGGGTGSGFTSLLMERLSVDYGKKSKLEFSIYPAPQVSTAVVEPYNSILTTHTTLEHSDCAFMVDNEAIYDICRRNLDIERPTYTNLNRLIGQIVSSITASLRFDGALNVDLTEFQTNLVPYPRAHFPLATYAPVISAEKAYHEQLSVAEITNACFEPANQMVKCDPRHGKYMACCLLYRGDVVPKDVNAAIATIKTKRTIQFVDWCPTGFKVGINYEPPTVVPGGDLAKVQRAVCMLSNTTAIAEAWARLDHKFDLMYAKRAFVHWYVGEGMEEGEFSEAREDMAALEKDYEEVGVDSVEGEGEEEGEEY
As for “KKT4^115–343 (microtubule-binding domain) K132E”, the other: fraction bound was 0.6.

On to “KKT4^115–343 (microtubule-binding domain) K115E”, for which the other: fraction bound was determined as 0.67.

Take “KKT4^115–343 (microtubule-binding domain) R145D”: the other: fraction bound came out at 0.55.

Regarding “KKT4^115–343 (microtubule-binding domain) K179E”, the other: fraction bound was 0.77.

Consider “KKT4^115–343 (microtubule-binding domain) K166E”, for which the other: fraction bound was found to be 0.85.

Take “KKT4^115–343 (microtubule-binding domain) K204E”: the other: fraction bound stood at 0.84.

“KKT4^115–343 (microtubule-binding domain) K198E”: the other: fraction bound worked out at 0.8.

For the molecule “KKT4^115–343 (microtubule-binding domain) K199E”, the other: fraction bound amounted to 0.78.

On to “KKT4^115–343 (microtubule-binding domain) R217D”, for which the other: fraction bound came to 0.77.

For the molecule “KKT4^115–343 (microtubule-binding domain) K218E”, the other: fraction bound was determined as 0.89.

“KKT4^115–343 (microtubule-binding domain) R130D”: the other: fraction bound was 0.6.

In the case of “KKT4^115–343 (microtubule-binding domain) K154E”, the other: fraction bound came out at 0.63.

With “KKT4^115–343 (microtubule-binding domain) R167D”, the other: fraction bound was determined as 0.74.

Regarding “KKT4^115–343 (microtubule-binding domain) K136E”, the other: fraction bound turned out to be 0.43.

For “KKT4^115–343 (microtubule-binding domain) K144E”, the other: fraction bound was determined as 0.44.

For the molecule “KKT4^115–343 (microtubule-binding domain) R140D”, the other: fraction bound stood at 0.48.

On to “KKT4^115–343 (microtubule-binding domain) R141D”, for which the other: fraction bound turned out to be 0.43.

With “KKT4^115–343 (microtubule-binding domain) R164D”, the other: fraction bound is 0.73.

In the case of “KKT4^115–343 (microtubule-binding domain) K206E”, the other: fraction bound worked out at 0.85.

As to “KKT4^115–343 (microtubule-binding domain) R230D”, the other: fraction bound stood at 0.6.

On to “KKT4^115–343 (microtubule-binding domain) R126D”, for which the other: fraction bound was determined as 0.46.

With “KKT4^115–343 (microtubule-binding domain) R123E”, the other: fraction bound worked out at 0.23.

A further data set addresses SNAP-6HIS-3FLAG-KKT4 (full-length T. brucei KKT4) (Trypanosoma brucei). The data set can be described thus: SEC-MALS; full-length SNAP-6HIS-3FLAG-KKT4 at lower concentrations; 25 mM HEPES pH 7.5, 340 mM NaCl, 0.5 mM TCEP.
Conditions: not given
On to “SNAP-6HIS-3FLAG-KKT4 (full-length T. brucei KKT4) (natural protein)”, for which the stoichiometry N is 2.

A further data set has the same target. The data set can be described thus: SEC-MALS; full-length SNAP-6HIS-3FLAG-KKT4 at higher concentrations; 25 mM HEPES pH 7.5, 340 mM NaCl, 0.5 mM TCEP; Superose 6 or Superdex 200 10/300.
Conditions: not given
Molecule “SNAP-6HIS-3FLAG-KKT4 (full-length T. brucei KKT4) (natural protein)” displayed a stoichiometry N of 4.
